Common to all, as to assay: holdup assay
Design in all cases: key: below the threshold = too weak to quantify, mostly under pKd 3.1 to 4

One assay has as its target T1, GIPC1, O14908.
T1 sequence (O14908 128-223, limits assumed, looked up): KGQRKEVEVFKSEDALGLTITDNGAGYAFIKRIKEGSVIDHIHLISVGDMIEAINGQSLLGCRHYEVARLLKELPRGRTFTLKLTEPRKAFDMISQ

The target of another assay is T2, GRIP1_1, Q9Y3R0.
T2 sequence (Q9Y3R0 48-146, limits assumed, looked up): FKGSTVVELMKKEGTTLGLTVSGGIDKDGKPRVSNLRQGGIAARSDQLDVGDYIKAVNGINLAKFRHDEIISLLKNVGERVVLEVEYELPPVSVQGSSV

The next assay concerns the target LIMK1, P53667.
Another assay concerns the target T3, MAGI2_1, Q86UL8.
T3 sequence (Q86UL8 12-111, limits assumed, looked up): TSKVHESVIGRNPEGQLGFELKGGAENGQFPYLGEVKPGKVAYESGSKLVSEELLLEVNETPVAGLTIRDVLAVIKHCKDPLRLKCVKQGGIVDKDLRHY

For another assay, the target named is T4, MLLT4, P55196.
T4 sequence (P55196 1002-1103, limits assumed, looked up): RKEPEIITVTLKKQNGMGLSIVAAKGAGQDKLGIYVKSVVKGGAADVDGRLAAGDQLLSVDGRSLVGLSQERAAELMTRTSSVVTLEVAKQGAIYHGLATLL

A further assay concerns the target T5, MPDZ_2, O75970.
T5 sequence (O75970 252-347, limits assumed, looked up): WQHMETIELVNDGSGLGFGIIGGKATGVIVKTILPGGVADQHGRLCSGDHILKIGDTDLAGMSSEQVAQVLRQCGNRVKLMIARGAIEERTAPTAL

In another assay the target is T6, MPDZ_7, O75970.
T6 sequence (O75970 1146-1253, limits assumed, looked up): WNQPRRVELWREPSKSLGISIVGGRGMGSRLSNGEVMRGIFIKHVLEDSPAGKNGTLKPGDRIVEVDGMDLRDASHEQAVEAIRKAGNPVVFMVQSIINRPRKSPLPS

Another assay deals with T7, MPP1, Q00013.
T7 sequence (Q00013 66-162, limits assumed, looked up): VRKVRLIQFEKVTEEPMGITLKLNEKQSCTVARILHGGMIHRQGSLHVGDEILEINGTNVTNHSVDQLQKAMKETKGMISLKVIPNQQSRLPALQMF

In a further assay the target is T8, NHERF1_1, O14745.
T8 sequence (O14745 9-104, limits assumed, looked up): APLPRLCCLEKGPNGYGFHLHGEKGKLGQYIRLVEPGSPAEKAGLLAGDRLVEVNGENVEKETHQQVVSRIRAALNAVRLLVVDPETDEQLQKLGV

The target in another assay is T9, PDLIM3, Q53GG5.
T9 sequence (Q53GG5 1-94, limits assumed, looked up): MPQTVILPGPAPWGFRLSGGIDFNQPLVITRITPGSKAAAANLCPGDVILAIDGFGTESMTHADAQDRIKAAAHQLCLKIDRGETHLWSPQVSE

In another assay the target is T10, SHROOM2, Q13796.
T10 sequence (Q13796 21-118, limits assumed, looked up): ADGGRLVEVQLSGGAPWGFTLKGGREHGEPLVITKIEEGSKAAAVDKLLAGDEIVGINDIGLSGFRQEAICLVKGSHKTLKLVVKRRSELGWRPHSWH

In the next assay the target is T11, SYNPO2L, Q9H987.
T11 sequence (Q9H987 1-98, limits assumed, looked up): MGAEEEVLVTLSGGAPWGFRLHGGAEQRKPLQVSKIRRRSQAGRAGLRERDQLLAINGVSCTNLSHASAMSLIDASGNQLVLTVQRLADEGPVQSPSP

The target in the next assay is T12, TJP3_1, O95049.
T12 sequence (O95049 6-103, limits assumed, looked up): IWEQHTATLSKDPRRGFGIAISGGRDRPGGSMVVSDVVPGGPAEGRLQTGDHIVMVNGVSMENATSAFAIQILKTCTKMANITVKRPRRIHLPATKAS

The next assay has as its target Q96JB8. Conditions: plain residues with an end cap or a label only (N-terminal biotin on a linker: ttds).
A further assay has as its target O43166. Conditions: plain residues with an end cap or a label only (N-terminal biotin on a linker: ttds).
The next assay addresses Q13368. Conditions: plain residues with an end cap or a label only (N-terminal biotin on a linker: ttds).
In another assay the target is Q5TCQ9. Conditions: plain residues with an end cap or a label only (N-terminal biotin on a linker: ttds).
A further assay deals with Q6ZWJ1. Conditions: plain residues with an end cap or a label only (N-terminal biotin on a linker: ttds).
The target in another assay is Q96HC4. Conditions: plain residues with an end cap or a label only (N-terminal biotin on a linker: ttds).
The next assay deals with Q96JY6. The settings on record: plain residues with an end cap or a label only (N-terminal biotin on a linker: ttds).
The target of the next assay is Q9C0E4. The settings on record: plain residues with an end cap or a label only (N-terminal biotin on a linker: ttds).
In another assay the target is Q9H190. Conditions: plain residues with an end cap or a label only (N-terminal biotin on a linker: ttds).
Another assay concerns the target Q9NR12. The settings on record: plain residues with an end cap or a label only (N-terminal biotin on a linker: ttds).
The target of the next assay is Q9P227. The settings on record: plain residues with an end cap or a label only (N-terminal biotin on a linker: ttds).
Another assay deals with Q9UDY2. The settings on record: plain residues with an end cap or a label only (N-terminal biotin on a linker: ttds).
[1] abbreviates: plain residues with an end cap or a label only (N-terminal biotin on a linker: ttds).
[2] abbreviates: plain residues with an end cap or a label only (N-terminal biotin on a linker: none).

For orientation: pKd means the Kd on a negative log10 scale, so that one unit is a factor of ten.

Chain of LIMK1, P53667 (P53667 155-268): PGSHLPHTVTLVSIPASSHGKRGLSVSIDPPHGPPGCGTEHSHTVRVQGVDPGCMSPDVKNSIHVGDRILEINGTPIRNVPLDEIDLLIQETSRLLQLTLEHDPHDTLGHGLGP

DEDQHTQITKV [PTEN, P60484]: the pKd entry is on record as “below the threshold” with GIPC1, O14908 (setting [1]); “below the threshold” with GRIP1_1, Q9Y3R0 (setting [1]); “below the threshold” with LIMK1, P53667 (setting [1]); “below the threshold” in the assay with MAGI2_1, Q86UL8 (setting [1]); “below the threshold” with MLLT4, P55196 (setting [1]); “below the threshold” with MPDZ_2, O75970 (setting [1]). Besides, the pKd with MPDZ_7, O75970 (setting [1]) was 3.71; with MPP1, Q00013 (setting [1]) it was “below the threshold”; with NHERF1_1, O14745 (setting [1]), 4.46; with PDLIM3, Q53GG5 (setting [1]), “below the threshold”; in the assay with SHROOM2, Q13796 (setting [1]), “below the threshold”; with SYNPO2L, Q9H987 (setting [1]), “below the threshold”. The pKd entry with TJP3_1, O95049 (setting [1]) is on record as “below the threshold”.

Take TGDTLEKFVEGL [CBP, Q92793]: the pKd entry is recorded as “below the threshold” in the assay with GIPC1, O14908 (setting [1]); “below the threshold” with GRIP1_1, Q9Y3R0 (setting [1]); “below the threshold” in the assay with LIMK1, P53667 (setting [1]); “below the threshold” with MAGI2_1, Q86UL8 (setting [1]); “below the threshold” with MLLT4, P55196 (setting [1]); “below the threshold” in the assay with MPDZ_2, O75970 (setting [1]). Also, the pKd result is “below the threshold” with MPDZ_7, O75970 (setting [1]); “below the threshold” with MPP1, Q00013 (setting [1]); 4.09 with NHERF1_1, O14745 (setting [1]); “below the threshold” with PDLIM3, Q53GG5 (setting [1]); “below the threshold” in the assay with Q96JB8; 3.83 in the assay with SHROOM2, Q13796 (setting [1]). Moreover, the pKd result is given as “below the threshold” with SYNPO2L, Q9H987 (setting [1]) and “below the threshold” with TJP3_1, O95049 (setting [1]).

As to RRVRKLPSTTL [RPS6KA1, Q15418], the pKd result with GIPC1, O14908 (setting [1]) is given as “below the threshold”; with GRIP1_1, Q9Y3R0 (setting [1]), “below the threshold”; with LIMK1, P53667 (setting [1]) it was “below the threshold”; in the assay with MAGI2_1, Q86UL8 (setting [1]) it was “below the threshold”; with MLLT4, P55196 (setting [1]) it was “below the threshold”; in the assay with MPDZ_2, O75970 (setting [1]), “below the threshold”. The pKd entry in the assay with MPDZ_7, O75970 (setting [1]) is “below the threshold”; with MPP1, Q00013 (setting [1]) it was “below the threshold”; with NHERF1_1, O14745 (setting [1]) it was “below the threshold”; with PDLIM3, Q53GG5 (setting [1]) it was “below the threshold”; with SHROOM2, Q13796 (setting [1]), 3.61; with SYNPO2L, Q9H987 (setting [1]), “below the threshold”. Moreover, the pKd entry with TJP3_1, O95049 (setting [1]) was “below the threshold”.

For the molecule RTRQRNETQV [HPV51-E6, P26554], the pKd with GIPC1, O14908 (setting [1]) was 5.1; with GRIP1_1, Q9Y3R0 (setting [1]), “below the threshold”; with LIMK1, P53667 (setting [1]), “below the threshold”; in the assay with MAGI2_1, Q86UL8 (setting [1]) it was “below the threshold”; in the assay with MLLT4, P55196 (setting [1]), “below the threshold”; with MPDZ_2, O75970 (setting [1]), “below the threshold”. In addition, the pKd entry in the assay with MPDZ_7, O75970 (setting [1]) is “below the threshold”; with MPP1, Q00013 (setting [1]) it was 5.81; with NHERF1_1, O14745 (setting [1]), “below the threshold”; in the assay with O43166 it was “below the threshold”; with PDLIM3, Q53GG5 (setting [1]), “below the threshold”; with Q13368 it was “below the threshold”. The pKd result with Q5TCQ9, with Q6ZWJ1, with Q96HC4, in the assay with Q96JB8, in the assay with Q96JY6 and in the assay with Q9C0E4 was “below the threshold” each time. The pKd entry in the assay with Q9H190 is listed as “below the threshold”; with Q9NR12 it was “below the threshold”; in the assay with Q9P227, “below the threshold”; in the assay with Q9UDY2, “below the threshold”; in the assay with SHROOM2, Q13796 (setting [1]) it was “below the threshold”; with SYNPO2L, Q9H987 (setting [1]) it was “below the threshold”. Besides, the negative-log Kd (pKd) result in the assay with TJP3_1, O95049 (setting [1]) is “below the threshold”.

In the case of DSKPPLPPDEWV [MERS-E, K9N5R3], the pKd result with GIPC1, O14908 (setting [2]) is “below the threshold”; with GRIP1_1, Q9Y3R0 (setting [2]) it was “below the threshold”; with LIMK1, P53667 (setting [2]) it was “below the threshold”; in the assay with MAGI2_1, Q86UL8 (setting [2]), “below the threshold”; with MLLT4, P55196 (setting [2]), “below the threshold”; in the assay with MPDZ_2, O75970 (setting [2]) it was “below the threshold”. For the same molecule, the pKd is 3.83 with MPDZ_7, O75970 (setting [2]); “below the threshold” in the assay with MPP1, Q00013 (setting [2]); “below the threshold” with NHERF1_1, O14745 (setting [2]); “below the threshold” with PDLIM3, Q53GG5 (setting [2]); “below the threshold” with SHROOM2, Q13796 (setting [2]); 4.16 with SYNPO2L, Q9H987 (setting [2]). The same molecule gave a pKd with TJP3_1, O95049 (setting [2]) of 4.19.

For the molecule SEKHFRETEV [HTLV1-TAX1, P03409], the pKd was 4.86 in the assay with GIPC1, O14908 (setting [1]); “below the threshold” with GRIP1_1, Q9Y3R0 (setting [1]); “below the threshold” with MAGI2_1, Q86UL8 (setting [1]); 4.08 in the assay with MLLT4, P55196 (setting [1]); “below the threshold” with MPDZ_2, O75970 (setting [1]); 4.44 with MPDZ_7, O75970 (setting [1]). Moreover, the pKd entry in the assay with MPP1, Q00013 (setting [1]) was “below the threshold”; with NHERF1_1, O14745 (setting [1]), “below the threshold”; with PDLIM3, Q53GG5 (setting [1]), 4.12; with SHROOM2, Q13796 (setting [1]) it was “below the threshold”; with SYNPO2L, Q9H987 (setting [1]) it was “below the threshold”; with TJP3_1, O95049 (setting [1]) it was “below the threshold”.

The values are drawn from publication PMC9482650, “Quantitative fragmentomics allow affinity mapping of interactomes” (Nature Communications, 2022).
